Target: FLAG-METTL5-G61D (human) (UniProt Q9NRN9)
Experiment: co-IP; anti-FLAG M2 beads in clarified lysate of transfected HeLa cells, 1 h at 4 °C; 50 mM Tris pH 7.4, 150 mM NaCl, 10% glycerol, 1.5 mM MgCl2, 0.5 mM EDTA, 0.2% NP-40, 1 mM DTT; three washes; Western blot with anti-FLAG and anti-TRMT112

Chain of UniProt Q9NRN9 (Q9NRN9 whole entry G61D): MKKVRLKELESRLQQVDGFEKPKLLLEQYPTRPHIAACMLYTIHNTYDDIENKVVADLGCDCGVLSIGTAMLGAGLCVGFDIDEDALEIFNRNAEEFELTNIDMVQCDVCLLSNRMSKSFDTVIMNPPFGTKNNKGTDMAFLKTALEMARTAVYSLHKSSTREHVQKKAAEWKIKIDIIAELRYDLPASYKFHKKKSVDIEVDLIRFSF

B1: TRMT112 (natural protein)
chain: MKLLTHNLLSSHVRGVGSRGFPLRLQATEVRICPVEFNPNFVARMIPKVEWSAFLEAADNLRLIQVPKGPVEGYEENEEFLRTMHHLLLEVEVIEGTLQCPESGRMFPISRGIPNMLLSEEETES
TRMT112 bound relative to that bound to FLAG-METTL5-WT: 5 to 15%

Source: PMC8857481
